Reference: patent EP4537907A1

Biological target: recombinant human CD248 (internally produced) (human) (UniProt Q9HCU0)
Assay: competition ELISA: non-purified Fab E. coli supernatant mixed 1:1 with biotinylated human CD248, added to immobilised human IGFBP5, Streptavidin-HRP

recombinant human CD248 (internally produced) (human), sequence (Q9HCU0 18-687 limits assumed): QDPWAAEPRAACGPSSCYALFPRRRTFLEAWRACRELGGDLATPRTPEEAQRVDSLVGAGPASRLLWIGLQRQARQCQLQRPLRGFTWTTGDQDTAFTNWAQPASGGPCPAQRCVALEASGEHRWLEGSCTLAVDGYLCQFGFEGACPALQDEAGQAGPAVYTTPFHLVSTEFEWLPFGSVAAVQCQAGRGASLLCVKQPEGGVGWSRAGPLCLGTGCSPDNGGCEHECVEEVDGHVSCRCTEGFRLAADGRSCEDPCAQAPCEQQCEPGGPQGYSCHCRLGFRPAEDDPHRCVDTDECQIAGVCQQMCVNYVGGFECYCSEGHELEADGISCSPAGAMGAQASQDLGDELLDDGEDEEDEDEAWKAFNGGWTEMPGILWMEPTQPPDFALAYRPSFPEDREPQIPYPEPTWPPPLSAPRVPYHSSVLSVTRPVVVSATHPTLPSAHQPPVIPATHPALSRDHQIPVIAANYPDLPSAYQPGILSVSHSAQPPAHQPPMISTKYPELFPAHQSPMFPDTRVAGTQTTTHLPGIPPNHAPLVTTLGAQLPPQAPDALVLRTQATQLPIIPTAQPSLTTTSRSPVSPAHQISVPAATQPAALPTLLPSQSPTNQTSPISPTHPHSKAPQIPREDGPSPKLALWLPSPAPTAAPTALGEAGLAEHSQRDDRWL

B1: YU1023-A02 Fab (Fab, V domains shown)
VH: QVQLVESGPGLVKPSQTLSLTCTVSGGSISSGGYYWSWIRQHPGKGLEWIGYIYYSGSTYYNPSLKSRVTISVDTSKNQFSLKLSSVTAADTAVYYCARVRGRSATYFDYWGQGTTVTVSS
VL: QSVLTQPPSVSGAPGQRVTISCTGSSSNIGAGYDVRWYQQLPGTAPKLLIYANNNRPSGVPDRFSGSKSGTSASLAITGLQTEDEADYYCQSYDISLSGSLFGGGTKLTVL
fold inhibition of CD248-IGFBP5 binding over the negative control antibody (Palivizumab): > 10 fold
